From paper PMC9166766 (2022)
No end group written: not given here. *: point of attachment. Biotin = O=C1N[C@H]2[C@H](CS[C@H]2CCCCC(=O)*)N1

Molecular target: His6-tagged CNA (isoform not told) (UniProt P16298 1-524)
Test: SPR

Kd: 512 nM
Binder: Biotin-AAAMAGFPPEITVTPPTP [biotin-labeled CABIN1-L-1 peptide]
